Results published in patent publication US20210107982A1 (NANJING LEADS BIOLABS, published 2021).
Where two headings read alike, the source gives them in different places.

Experiments:
[1] = molecular target: T1, Human 4-1BB expressed on HEK293-NFκB-Luc-human 4-1BB cells (human, UniProt Q07011 24-255); experiment: cell-based or functional assay
[2] = molecular target: T1, Human 4-1BB expressed on …; experiment: cell-based or functional assay; remark: listed apart in the source
[3] = molecular target: T2, Human 4-1BB recombinant protein (Sinobiological, Cat #10041-H08H) (human, UniProt Q07011 24-186); experiment: ELISA on plate-coated human 4-1BB (25 ng/well), HRP anti-human IgG F(ab')2 detection, OD450-620; EC50 table under the curve, unit taken from the axis 'Antibody Conc [nM]'
T2 construct: Bought recombinant protein

[4] = molecular target: T1, Human 4-1BB expressed on …; experiment: cell-based or functional assay; remark: listed apart in the source
[5] = molecular target: T3, Human GITR (Sinobiological, Cat #13643-H08H) (human, UniProt Q9Y5U5 26-161); experiment: ELISA, antigen coated at 25 ng/well
T3 sequence (looked up): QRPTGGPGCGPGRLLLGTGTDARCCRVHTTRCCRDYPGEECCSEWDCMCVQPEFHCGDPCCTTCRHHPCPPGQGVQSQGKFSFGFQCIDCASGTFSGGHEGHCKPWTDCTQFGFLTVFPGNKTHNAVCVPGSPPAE

[6] = molecular target: Human CD40 (Sinobiological, Cat #10774-H08H) (human, UniProt P25942 21-193); experiment: ELISA, antigen coated at 25 ng/well
Chain of Human CD40 (Sinobiological, Cat #10774-H08H) (P25942 21-193 limits assumed): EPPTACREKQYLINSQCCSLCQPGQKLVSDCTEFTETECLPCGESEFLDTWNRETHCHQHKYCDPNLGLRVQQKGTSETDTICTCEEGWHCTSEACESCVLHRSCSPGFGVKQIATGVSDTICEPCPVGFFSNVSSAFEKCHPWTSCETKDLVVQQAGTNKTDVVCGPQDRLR

[7] = molecular target: T4, Human CD27 (Sinobiological, Cat #10039-H31H) (human, UniProt P26842 20-192); experiment: ELISA, antigen coated at 25 ng/well
T4 sequence (looked up): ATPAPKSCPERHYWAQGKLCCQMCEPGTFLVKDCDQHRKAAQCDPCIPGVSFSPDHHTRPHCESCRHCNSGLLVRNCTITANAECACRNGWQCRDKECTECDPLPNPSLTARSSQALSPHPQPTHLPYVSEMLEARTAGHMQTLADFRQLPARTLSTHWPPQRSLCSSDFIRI

[8] = molecular target: T5, Human HVEM (Sinobiological, Cat #10334-H03H) (human, UniProt Q92956 39-202); experiment: ELISA, antigen coated at 25 ng/well
T5 sequence (looked up): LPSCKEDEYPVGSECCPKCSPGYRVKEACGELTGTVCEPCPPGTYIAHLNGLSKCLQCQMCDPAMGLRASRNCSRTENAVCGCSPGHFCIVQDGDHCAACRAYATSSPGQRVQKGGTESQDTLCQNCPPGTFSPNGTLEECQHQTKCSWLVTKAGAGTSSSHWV

[9] = molecular target: T6, Human OX40 (Sinobiological, Cat #10481-H08H) (human, UniProt P43489 29-216); experiment: ELISA, antigen coated at 25 ng/well
T6 sequence (looked up): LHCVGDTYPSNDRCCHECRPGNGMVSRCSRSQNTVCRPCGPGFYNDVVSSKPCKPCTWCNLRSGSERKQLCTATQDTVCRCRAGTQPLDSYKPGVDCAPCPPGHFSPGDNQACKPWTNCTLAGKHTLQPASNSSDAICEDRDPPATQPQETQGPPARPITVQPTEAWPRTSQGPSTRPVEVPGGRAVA

[10] = molecular target: T1, Human 4-1BB expressed on …; experiment: cell-based or functional assay; remark: listed apart in the source
[11] = molecular target: T1, Human 4-1BB expressed on …; experiment: cell-based or functional assay; remark: listed apart in the source
[12] = molecular target: T2, Human 4-1BB recombinant protein …; experiment: ELISA on plate-coated human 4-1BB (25 ng/well), HRP anti-human IgG F(ab')2 detection, OD450; EC50 table under the curve, unit taken from the axis 'Antibody Conc [nM]'
[13] = molecular target: T1, Human 4-1BB expressed on …; experiment: cell-based or functional assay; remark: listed apart in the source
[14] = molecular target: T2, Human 4-1BB recombinant protein …; experiment: ELISA on plate-coated human 4-1BB (25 ng/well), HRP anti-human IgG F(ab')2 detection, OD450; EC50 table under the curve, unit taken from the axis 'Antibody Conc [nM]'; remark: listed apart in the source
[15] = molecular target: T1, Human 4-1BB expressed on …; experiment: cell-based or functional assay; remark: listed apart in the source
[16] = molecular target: T2, Human 4-1BB recombinant protein …; experiment: ELISA on plate-coated human 4-1BB (25 ng/well), HRP anti-human IgG F(ab')2 detection, OD450; EC50 table under the curve, unit taken from the axis 'Antibody Conc [nM]'; remark: listed apart in the source
[17] = molecular target: T7, Human 4-1BB, human Fc tag protein (Hu4-1BB-hFc) (human); experiment: ELISA, Hu4-1BB-hFc coated, antibody 6.65 nM to 0.009 nM
T7 construct: also called Hu4-1BB-huFc; human 4-1BB proteins
T7 sequence (chain, as listed by the source limits assumed): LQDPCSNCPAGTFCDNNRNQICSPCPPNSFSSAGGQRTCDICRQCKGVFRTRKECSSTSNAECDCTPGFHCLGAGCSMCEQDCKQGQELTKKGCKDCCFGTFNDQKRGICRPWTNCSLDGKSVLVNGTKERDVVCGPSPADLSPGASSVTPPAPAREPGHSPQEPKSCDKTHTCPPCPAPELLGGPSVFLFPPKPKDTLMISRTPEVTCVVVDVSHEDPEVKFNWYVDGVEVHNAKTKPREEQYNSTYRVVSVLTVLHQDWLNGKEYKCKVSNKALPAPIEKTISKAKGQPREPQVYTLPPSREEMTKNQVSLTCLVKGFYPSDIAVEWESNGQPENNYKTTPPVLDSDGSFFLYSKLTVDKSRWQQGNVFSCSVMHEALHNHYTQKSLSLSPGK

[18] = molecular target: T2, Human 4-1BB recombinant protein …; experiment: BLI (ForteBio Octet RED 96), antibody on AHC sensors, human 4-1BB as analyte, 1:1 model

T1 sequence (Q07011 24-255 limits assumed): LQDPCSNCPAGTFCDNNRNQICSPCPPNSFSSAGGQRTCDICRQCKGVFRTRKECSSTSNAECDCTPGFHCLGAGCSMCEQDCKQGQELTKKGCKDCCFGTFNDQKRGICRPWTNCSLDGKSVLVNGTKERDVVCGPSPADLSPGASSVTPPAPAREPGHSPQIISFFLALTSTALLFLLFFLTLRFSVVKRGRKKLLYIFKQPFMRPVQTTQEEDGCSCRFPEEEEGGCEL

B1: 41BB-2-IgG2 (antibody, V domains shown)
VH: QVQLQESGGGLVQPGGSLRLSCAVSGFTFSSYAMHWVRQAPGKGLEWVAVISYDGSKKWYADSVKGRFTISRDNSKNTLYLQMNSLRAEDTAVYYCARNQGSGSYLYYYYMDVWGKGTTVTVSS
VL: QSALTQPRSVSGSPGQSVTISCTGTSSDVGGYNYVSWYQQLPGKAPKVIIYEVSNRPSGVSNRFSGSKSGNTASLTISGVQSEDEADYYCSSYTSSSTFYVFGTGTQLTVLS
notes: Full antibody; VH joined to the IgG2 constant region, VL to the lambda constant region
EC50, NFκB-luciferase reporter (RLUs) in HEK293-NFκB-Luc-4-1BB cells, with crosslink (goat anti-human IgG) [1]: 6.21 nM
EC50, NFκB-luciferase reporter (RLUs) in HEK293-NFκB-Luc-4-1BB cells, without crosslink [2]: 56.1 nM
EC50 [3]: 0.622 nM
EC50, NFκB-luciferase reporter (RLUs) in HEK293-NFκB-Luc-4-1BB cells, without crosslink [4]: 47.4 nM
binding result [5]: no binding (tested: 500 ng/mL)
binding result [6]: no binding (tested: 500 ng/mL)
binding result [7]: no binding (tested: 500 ng/mL)
binding result [8]: no binding (tested: 500 ng/mL)
binding result [9]: no binding (tested: 500 ng/mL)

B2: Urelumab (antibody, human IgG4 S228P, kappa, V domains shown)
VH: QVQLQQWGAGLLKPSETLSLTCAVYGGSFSGYYWSWIRQSPEKGLEWIGEINHGGYVTYNPSLESRVTISVDTSKNQFSLKLSSVTAADTAVYYCARDYGPGNYDWYFDLWGRGTLVTVSS
VL: EIVLTQSPATLSLSPGERATLSCRASQSVSSYLAWYQQKPGQAPRLLIYDASNRATGIPARFSGSGSGTDFTLTISSLEPEDFAVYYCQQRSNWPPALTFCGGTKVEIKR
EC50, NFκB-luciferase reporter (RLUs) in HEK293-NFκB-Luc-4-1BB cells, without crosslink [10]: 32.3 nM
EC50, NFκB-luciferase reporter (RLUs) in HEK293-NFκB-Luc-4-1BB cells, without crosslink [11]: 34 nM
EC50, NFκB-luciferase reporter (RLUs) in HEK293-NFκB-Luc-4-1BB cells, without crosslink [4]: 26.8 nM

B3: 41BB-13-IgG2 (antibody, V domains shown)
VH: EVQLVETGVEVKKPGASVKVSCKASGYTFTSYYMHWVRQAPGQGLEWMGIINPSGGSTSYAQKFQGRVTMTRDTSTSTAYMELSSLRSEDTAVYYCARDLGEGYDFWSGYYTPSGAFDIWGKGTMVTVSS
VL: QSALTQPASVSGSPGQSITISCTGTSSDVGGYNYVSWYQQRPGKAPKLIIYDVTTRPSGVSNRFSGSKSGTTASLTISGLQAEDEADYYCSSYTSYSTWVFGGGTKLTVLG
notes: Full antibody, IgG2 / lambda
EC50 [12]: 1.27 nM
EC50, NFκB-luciferase reporter (RLUs) in HEK293-NFκB-Luc-4-1BB cells, without crosslink [10]: 106 nM
EC50, NFκB-luciferase reporter (RLUs) in HEK293-NFκB-Luc-4-1BB cells, with crosslink (goat anti-human IgG) [13]: 10.6 nM
binding result [5]: no binding (tested: 500 ng/mL)
binding result [6]: no binding (tested: 500 ng/mL)
binding result [7]: no binding (tested: 500 ng/mL)
binding result [8]: no binding (tested: 500 ng/mL)
binding result [9]: no binding (tested: 500 ng/mL)

B4: 41BB-27-IgG2 (antibody, V domains shown)
VH: QVQLQESGPGPVKPSETLSLTCAVSGGSISSSHWWSWVRQPPGKGLEWIGEIYHSGRTYYNPSLKSRVTISVDTSRNQFSLKLSSVTAADTAVYYCAREDGGIMDVWGQGTLVTVSS
VL: LSSELTQDPAVSVALGQTVRITCQGDSLRRFYASWYQQKPGQAPVLVIYGKNNRPSGIPDRFSASDSGNTASLTITGAQAEDEADYYCSSRDRSGYRWVFGGGTKVTVLG
notes: Full antibody, IgG2 / lambda
EC50, NFκB-luciferase reporter (RLUs) in HEK293-NFκB-Luc-4-1BB cells, without crosslink [2]: 35.9 nM
EC50 [14]: 0.05 nM
binding result [5]: no binding (tested: 500 ng/mL)
binding result [6]: no binding (tested: 500 ng/mL)
binding result [7]: no binding (tested: 500 ng/mL)
binding result [8]: no binding (tested: 500 ng/mL)
binding result [9]: no binding (tested: 500 ng/mL)

B5: 41BB-9-IgG2 (antibody, V domains shown)
VH: QVQLVQSGAEVKKPGSSVKVSCKASGGTFSSYAISWVRQAPGQGLEWMGGIIPISGAVNYAQKFQGRVTITADESTSTAYMELSSLRSEDTAVYYCARDQFIKYYDFSSGYFPNGFDIWGKGTLVTVSS
VL: QTVVTQPPSVSVSPGQTASITCSGDKLGDKYAAWYQQKPGQSPVLVIYQDTVRPSGIPERFSGSNSGNTATLTISGTQAMDEADYYCQTWVSSTGVFGTGTKVTVLG
notes: Full antibody, IgG2 / lambda
EC50, NFκB-luciferase reporter (RLUs) in HEK293-NFκB-Luc-4-1BB cells, without crosslink [11]: 16.6 nM
binding result [5]: no binding (tested: 500 ng/mL)
binding result [6]: no binding (tested: 500 ng/mL)
binding result [7]: no binding (tested: 500 ng/mL)
binding result [8]: no binding (tested: 500 ng/mL)
binding result [9]: no binding (tested: 500 ng/mL)
EC50, NFκB-luciferase reporter (RLUs) in HEK293-NFκB-Luc-4-1BB cells, with crosslink (goat anti-human IgG) [15]: 3.24 nM
EC50 [16]: 0.134 nM

B6: P4B-2 (bispecific antibody, human IgG1, kappa, L234A L235A)
heavy: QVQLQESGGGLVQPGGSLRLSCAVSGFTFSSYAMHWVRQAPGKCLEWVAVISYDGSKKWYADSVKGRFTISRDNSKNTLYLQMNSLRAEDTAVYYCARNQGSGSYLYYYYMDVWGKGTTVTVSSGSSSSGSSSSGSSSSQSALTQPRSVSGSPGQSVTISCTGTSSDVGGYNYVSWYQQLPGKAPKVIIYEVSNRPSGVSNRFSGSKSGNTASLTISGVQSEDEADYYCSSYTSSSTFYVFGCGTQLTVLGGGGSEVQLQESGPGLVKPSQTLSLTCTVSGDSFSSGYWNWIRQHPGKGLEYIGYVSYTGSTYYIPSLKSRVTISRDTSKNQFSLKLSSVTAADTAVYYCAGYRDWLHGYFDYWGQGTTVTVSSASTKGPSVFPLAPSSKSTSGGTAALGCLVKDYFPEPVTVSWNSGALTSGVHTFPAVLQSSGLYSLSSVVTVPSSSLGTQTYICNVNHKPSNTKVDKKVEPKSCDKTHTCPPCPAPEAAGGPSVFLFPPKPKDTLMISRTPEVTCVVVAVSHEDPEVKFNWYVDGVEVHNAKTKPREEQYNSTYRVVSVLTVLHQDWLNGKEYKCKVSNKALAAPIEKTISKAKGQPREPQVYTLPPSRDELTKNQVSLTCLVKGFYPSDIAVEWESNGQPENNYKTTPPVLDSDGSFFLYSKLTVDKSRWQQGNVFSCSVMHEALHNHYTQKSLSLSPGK
light: DIQMTQSPSSLSASVGDRVTITCKASQNVMDNVAWYQQKPGKAPKRLIYSASYRFSGVPSRFSGSGSGTEFTLTISSLQPEDFATYYCQQYNGYPLTFGQGTKLEIKRTVAAPSVFIFPPSDEQLKSGTASVVCLLNNFYPREAKVQWKVDNALQSGNSQESVTEQDSKDSTYSLSSTLTLSKADYEKHKVYACEVTHQGLSSPVTKSFNRGEC
notes: PD-L1 x 4-1BB bispecific; the 4-1BB scFv stands at the N-terminus of each heavy chain of the PD-L1 antibody
EC50 [17]: 0.113 nM

B7: P4B-3 (bispecific antibody, human IgG1, kappa, L234A L235A)
heavy: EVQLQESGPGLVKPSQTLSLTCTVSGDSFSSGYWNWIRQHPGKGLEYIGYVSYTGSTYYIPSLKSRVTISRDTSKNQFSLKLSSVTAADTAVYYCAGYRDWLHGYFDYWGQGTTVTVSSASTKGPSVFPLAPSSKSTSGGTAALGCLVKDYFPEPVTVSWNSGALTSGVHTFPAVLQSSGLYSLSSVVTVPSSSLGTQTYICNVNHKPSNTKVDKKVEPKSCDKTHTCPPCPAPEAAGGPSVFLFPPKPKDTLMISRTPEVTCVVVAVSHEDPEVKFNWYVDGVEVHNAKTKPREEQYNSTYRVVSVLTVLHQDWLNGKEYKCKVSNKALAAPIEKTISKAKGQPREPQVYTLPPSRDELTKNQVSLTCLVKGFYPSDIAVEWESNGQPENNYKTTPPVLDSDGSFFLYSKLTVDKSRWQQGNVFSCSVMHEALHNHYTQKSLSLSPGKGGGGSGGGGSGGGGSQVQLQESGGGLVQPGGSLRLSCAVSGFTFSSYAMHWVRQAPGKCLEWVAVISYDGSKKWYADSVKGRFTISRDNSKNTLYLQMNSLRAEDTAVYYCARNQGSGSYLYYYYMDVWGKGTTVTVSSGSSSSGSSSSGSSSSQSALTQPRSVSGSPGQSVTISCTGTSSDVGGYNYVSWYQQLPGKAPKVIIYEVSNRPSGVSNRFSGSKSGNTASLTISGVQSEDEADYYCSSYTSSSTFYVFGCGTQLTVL
light: DIQMTQSPSSLSASVGDRVTITCKASQNVMDNVAWYQQKPGKAPKRLIYSASYRFSGVPSRFSGSGSGTEFTLTISSLQPEDFATYYCQQYNGYPLTFGQGTKLEIKRTVAAPSVFIFPPSDEQLKSGTASVVCLLNNFYPREAKVQWKVDNALQSGNSQESVTEQDSKDSTYSLSSTLTLSKADYEKHKVYACEVTHQGLSSPVTKSFNRGEC
notes: PD-L1 x 4-1BB bispecific; the 4-1BB scFv stands at the C-terminus of each heavy chain of the PD-L1 antibody
Kd [18]: 146 nM
koff [18]: 0.00409 s⁻¹
kon [18]: 28000 M⁻¹ s⁻¹
EC50 [17]: 0.0723 nM
